The values below come from publication PMC12373895.

Assay in all cases: ELONA
Data set [1] concerns the target T1, ERA deltaKH (Staphylococcus aureus, UniProt Q2FY06 1-202).
T1 sequence: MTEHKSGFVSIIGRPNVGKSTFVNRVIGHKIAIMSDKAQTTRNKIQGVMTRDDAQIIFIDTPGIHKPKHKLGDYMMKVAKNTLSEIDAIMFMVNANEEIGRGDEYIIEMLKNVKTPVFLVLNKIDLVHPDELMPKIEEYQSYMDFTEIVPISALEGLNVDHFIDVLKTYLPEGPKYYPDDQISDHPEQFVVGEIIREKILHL

The target of data set [2] is T2, ERA GTPase (Staphylococcus aureus, UniProt Q2FY06 1-299).
T2 sequence: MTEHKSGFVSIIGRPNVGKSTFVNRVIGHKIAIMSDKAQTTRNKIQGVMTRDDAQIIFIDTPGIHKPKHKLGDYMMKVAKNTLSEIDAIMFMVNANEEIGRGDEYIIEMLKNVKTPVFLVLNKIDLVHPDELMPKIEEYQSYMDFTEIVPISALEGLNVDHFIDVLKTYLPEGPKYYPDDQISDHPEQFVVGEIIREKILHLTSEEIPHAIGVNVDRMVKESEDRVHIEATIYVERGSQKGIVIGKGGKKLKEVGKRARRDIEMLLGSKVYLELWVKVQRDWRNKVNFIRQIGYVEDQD

Data set [3] concerns the target T3, 1F8 (Chagas antigenic protein) (Trypanosoma cruzi, UniProt P07749 1-211).
T3 sequence: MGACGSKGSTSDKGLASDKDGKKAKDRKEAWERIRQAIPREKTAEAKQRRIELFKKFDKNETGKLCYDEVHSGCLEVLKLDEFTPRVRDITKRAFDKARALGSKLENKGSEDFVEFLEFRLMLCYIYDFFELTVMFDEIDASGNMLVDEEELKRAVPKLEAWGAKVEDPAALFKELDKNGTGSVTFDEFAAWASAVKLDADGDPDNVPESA

Data set [4] deals with T2, ERA GTPase. This is another data set of the same source.

Consider TACTAGCCCTACCTGTACTCTCGAGCCGATTTTAAGGATC (ssDNA) [AptERA 2 (40 nt)], for which the binding result in data set [1] and in data set [3] was “no binding” throughout. The same molecule registered a Kd in data set [2] of 243 ± 16 nM. In data set [4], the “apparent K (half saturation)” value is 185 ± 3 nM.

As a reminder, the Kd is a measure of binding affinity in units of concentration.
